Measurements: the supplement of paper PMC9732359
± gives the uncertainty stated by the source.

Assay: protein stability index of a GFP-peptide fusion (yeast GPS) (PSI 1-4); higher = more stable; sorted into four equal gates, so the index is relative within each strain
In short: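 Tiled 17-residue yeast protein peptides were fused downstream of GFP in a plasmid that also expresses Cherry, and the pooled library was carried in yeast. Mid-log cultures in leucine-free medium were sorted into four equal gates by GFP/Cherry fluorescence ratio, and plasmids from each gate were PCR-amplified and Illumina-sequenced, with reads assigned to strains by barcodes. The protein stability index for each peptide was each gate's read frequency times its gate number, summed.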

Sequence	protein stability index (doa10∆)	protein stability index (pdr5∆)	protein stability index (san1∆)	protein stability index (ubr1∆)
DLKIEKLVLNISVGESG [RPL11A]	2.81 ± 0.12	2.66 ± 0.095	2.52 ± 0.09	1.89 ± 0.09
SKQVQVSQQPLSRGYTC [ECM29]	2.83 ± 0.074	2.76 ± 0.091	2.44 ± 0.061	2.92 ± 0.052
TPSTEESRAQNVFGQDN [SWI3]	2.58 ± 0.092	2.77 ± 0.093	3.35 ± 0.054	2.55 ± 0.048
NTTKPAFGGLNFGGGNN [YJL041W/NSP1]	2.71 ± 0.054	3.2 ± 0.061	3.01 ± 0.045	3.13 ± 0.068
DRKSIMPLKILLATKQH [CSN12]	1.9 ± 0.15	1.19 ± 0.055	1.53 ± 0.11	1.42 ± 0.058
NRYAFSQPTNSTTTSLH [SMC4]	2.44 ± 0.079	2.33 ± 0.052	2.14 ± 0.11	2.26 ± 0.044
IFINYKQTADWLAEKFQ [PRP28]	1.7 ± 0.049	1.93 ± 0.06	2.37 ± 0.072	2.36 ± 0.06
WDLQLQEKESQIQLAES [SMC4]	3.05 ± 0.056	3.08 ± 0.076	2.82 ± 0.082	3.07 ± 0.06
DYLNAELGEFFVNGVAT [FAS2]	3.09 ± 0.093	2.79 ± 0.24	3.06 ± 0.12	3.35 ± 0.08
LKELRIDNSPQAISYLH [GRR1]	2.17 ± 0.054	2.55 ± 0.051	2.08 ± 0.057	2.4 ± 0.034
DLKNTRMKSITSTSQKI [SNF5]	3.23 ± 0.082	3.14 ± 0.074	3.17 ± 0.045	3.08 ± 0.05
QDVDDAHAIDQMTWRQW [POP8]	2.1 ± 0.058	1.99 ± 0.052	1.78 ± 0.069	2.5 ± 0.076
WIAMRREKRDRTHFKRM [PRP8]	1.99 ± 0.079	2.54 ± 0.078	2.04 ± 0.2	1.93 ± 0.065
LANLIRDALRNIKNTNE [RRP6]	2.37 ± 0.045	2.51 ± 0.055	2.63 ± 0.055	2.49 ± 0.036
DQIAVCEISGSIEQLRN [BRN1]	3.27 ± 0.16	3.26 ± 0.19	3.11 ± 0.19	
RTIGIAVDHRRQNRNQE [RPL13A]	2.65 ± 0.18	2.7 ± 0.13	3.14 ± 0.16	2.86 ± 0.22
DIVQYHLELYTSQYGTP [PRE3]	2.1 ± 0.063	1.74 ± 0.058	1.77 ± 0.07	2 ± 0.042
FQFFPKELDALQEKEQL [ISW2]	2.79 ± 0.066	2.97 ± 0.074	3.04 ± 0.043	2.97 ± 0.06
LSSGENRYAFSQPTNST [SMC4]	3.22 ± 0.14	2.96 ± 0.11		2.85 ± 0.11
DELILPLPSHALTVQEV [YDL116W/NUP84]	2.4 ± 0.038	2.56 ± 0.036	2.15 ± 0.057	2.44 ± 0.025
ANPAGASQPEPTTNEPA [YJL041W/NSP1]	2.82 ± 0.12	3 ± 0.11	2.92 ± 0.1	3.16 ± 0.095
VTLRKSLYTNTSRKALE [RPL3]	2.66 ± 0.069	2.26 ± 0.059	1.78 ± 0.078	1.78 ± 0.072
TEKEEAVAKAAEKKVVR [RPL17A]	3.44 ± 0.087	3.35 ± 0.082	3.24 ± 0.053	3.24 ± 0.062
LNITTVFSHAQTAVTCE [RPS27A]	2.38 ± 0.043	2.21 ± 0.047	2.08 ± 0.063	2.09 ± 0.052
LEMLKPCVEDGFVIQDR [RPB2]	3.17 ± 0.086	3.29 ± 0.12	3.19 ± 0.19	3.23 ± 0.077
FDFLDDGTAQLSNNKTD [YJR042W/NUP85]	3.38 ± 0.23	3.52 ± 0.21	3.5 ± 0.099	3.39 ± 0.12

Sequence	protein stability index (doa10∆)	protein stability index (pdr5∆)	protein stability index (san1∆)	protein stability index (ubr1∆)
PSINLDPDNTSFSDENS [ESC2]	2.83 ± 0.072	2.93 ± 0.054	2.58 ± 0.064	3.07 ± 0.029
IKKVICGAWEPAITIEK [SIR3]	2.15 ± 0.094	2.45 ± 0.087	2.47 ± 0.1	2.58 ± 0.084
EDIIKRTSPIDNVSNTH [NUT2]	2.87 ± 0.062	2.88 ± 0.06	3.01 ± 0.083	3.04 ± 0.049
VSTSSGAAANNNDQKRQ [YJL041W/NSP1]	3.37 ± 0.084	3.17 ± 0.073	3.27 ± 0.035	3.45 ± 0.069
EIQRTMLELLNQLDGFD [RPT2]	2.83 ± 0.088	2.97 ± 0.12	2.93 ± 0.067	
QIYTQRAYMRPLGVILT [SCL1]	1.8 ± 0.053	1.38 ± 0.06	1.43 ± 0.12	1.64 ± 0.036
EQQWITRAQYLAFAKLV [SRP68]	1.63 ± 0.06	1.51 ± 0.051	1.33 ± 0.086	1.5 ± 0.051
EGNAGGDQKTSENRNNI [YOR098C/NUP1]		3.6 ± 0.17	3.19 ± 0.17	3.36 ± 0.074
LSEEKEVIFTDVLKSQA [MCD1]	2.92 ± 0.2	3.09 ± 0.23	3.13 ± 0.12	2.77 ± 0.17
DWNKRFSHLAGGKIINK [BRR2]	2.84 ± 0.075	3.33 ± 0.14	3.12 ± 0.2	3 ± 0.089
GCYFEEKRYDDKLLDFI [CSN12]	3.34 ± 0.06	2.92 ± 0.098	3.04 ± 0.066	3.04 ± 0.077
LKESVEGEFNGDTIELA [PRE8]	3.12 ± 0.092	3.48 ± 0.11	3.4 ± 0.072	3.2 ± 0.073
RLRQGAAKLRTLDYAER [RPL2A]	1.61 ± 0.071	1.51 ± 0.049	1.56 ± 0.12	1.56 ± 0.048
LAHSQHRCAIRSGALIK [SSN2]	1.5 ± 0.058	1.22 ± 0.046	1.16 ± 0.13	1.16 ± 0.037
CDLSSKFNKSKAKFTSL [YCS4]	2.72 ± 0.055	2.79 ± 0.07	2.98 ± 0.05	2.64 ± 0.037
MRAKWRKKRTRRLKRKR [RPL41A]	3.47 ± 0.16	3.06 ± 0.13	3.34 ± 0.16	3.44 ± 0.15
MTIPHMKYAVSKTSENK [SIR2]	3.14 ± 0.12	3.07 ± 0.16	2.75 ± 0.11	3.06 ± 0.1
STMGTPTVHNSTAAAPI [PGD1]	2.83 ± 0.095	3.07 ± 0.059	2.76 ± 0.06	2.93 ± 0.049
LVEVEDEKIEAIKKKEK [SRB7]	2.57 ± 0.16	3.09 ± 0.16	3.05 ± 0.094	3.39 ± 0.17
HPSIYTQVFNILLQHKE [POP1]	2.25 ± 0.083	2.6 ± 0.074	2.41 ± 0.08	2.39 ± 0.044
FDEKTIEEMLEIISGYA [RPC17]	1.36 ± 0.082	2.69 ± 0.14	2.07 ± 0.14	1.75 ± 0.09
LPKYQTIQYDPPETKLP [SNF5]	3.03 ± 0.052	2.96 ± 0.046	2.92 ± 0.04	3.01 ± 0.039
VVARRSNSANVSSPESE [ITC1]	3.19 ± 0.05	3.35 ± 0.053	3.25 ± 0.036	3.18 ± 0.035
MVLYKRKPILLPDPKPL [ITC1]	2.88 ± 0.067	2.85 ± 0.065	2.75 ± 0.067	2.66 ± 0.055
TAGAAANALGGLGVNRR [SSN3]	3.51 ± 0.11	3.04 ± 0.11	3.38 ± 0.089	3.24 ± 0.1
SRGESDDSLNRLAQNDG [RPS21A]	2.72 ± 0.19	2.9 ± 0.14		
